{"source": "paper PMC10798921", "about": "“Target-induced hot spot construction for sensitive and selective surface-enhanced Raman scattering detection of matrix metalloproteinase MMP-9”", "binders": {"B1": {"name": "MMP-9 aptamer (annealed to DNA1 on AuNS-1) (mixed)", "DNA 1": "TCGTATGGCACGGGGTTGGTGTTGGGTTGG", "DNA 2": "GGTGTGCCATACGAAA", "modifications": "DNA1 3' ThioMC3-D"}}, "conditions_in_all_cases": "protein: recombinant; label: 13-nm gold nanosphere via DNA1 3' thiol; partial duplex: aptamer 5' part pairs with DNA1; aptamer 3' overhang; DNA1 3' AAA tail", "key": {"MMP-2": {"biological_target": "MMP-2 (human, UniProt P08253 110-660)", "sequence (P08253 110-660)": "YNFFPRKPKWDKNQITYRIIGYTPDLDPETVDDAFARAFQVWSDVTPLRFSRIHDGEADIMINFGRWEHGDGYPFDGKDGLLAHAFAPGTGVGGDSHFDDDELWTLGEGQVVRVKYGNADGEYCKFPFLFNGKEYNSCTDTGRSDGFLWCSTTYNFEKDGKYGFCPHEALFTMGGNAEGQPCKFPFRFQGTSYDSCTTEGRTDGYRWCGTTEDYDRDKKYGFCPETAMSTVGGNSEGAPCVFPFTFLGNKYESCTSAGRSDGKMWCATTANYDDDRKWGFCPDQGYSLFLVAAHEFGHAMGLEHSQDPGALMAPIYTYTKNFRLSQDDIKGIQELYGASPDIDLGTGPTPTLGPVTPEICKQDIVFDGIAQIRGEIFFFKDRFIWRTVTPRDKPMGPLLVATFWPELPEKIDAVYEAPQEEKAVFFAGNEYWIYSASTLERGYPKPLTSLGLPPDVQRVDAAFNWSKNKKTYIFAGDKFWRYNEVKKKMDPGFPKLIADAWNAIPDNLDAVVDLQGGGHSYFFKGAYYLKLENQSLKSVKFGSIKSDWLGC", "assay": "SERS nanosensor (aptamer strand displacement); 100 ng/mL; AuNS-2 with DNA2/DTNB present; Assay buffer for MMP-9 in solution not in the material; duplex annealed in 8 mM phosphate, 0.8 mM MgCl2, 20 mM NaCl; cell supernatant assay at 37 C for 2 h"}, "MMP-7": {"biological_target": "T1, MMP-7 (human, UniProt P09237 95-267)", "T1 sequence": "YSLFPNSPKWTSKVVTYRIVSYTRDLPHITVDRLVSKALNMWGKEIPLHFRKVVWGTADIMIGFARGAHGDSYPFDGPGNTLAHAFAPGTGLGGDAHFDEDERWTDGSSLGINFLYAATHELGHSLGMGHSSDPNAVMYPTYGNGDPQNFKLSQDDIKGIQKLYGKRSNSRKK", "assay": "SERS nanosensor (aptamer strand displacement); 100 ng/mL; AuNS-2 with DNA2/DTNB present; Assay buffer for MMP-9 in solution not in the material; duplex annealed in 8 mM phosphate, 0.8 mM MgCl2, 20 mM NaCl; cell supernatant assay at 37 C for 2 h"}, "MMP-3": {"biological_target": "MMP-3 (human, UniProt P08254 100-477)", "sequence (P08254 100-477)": "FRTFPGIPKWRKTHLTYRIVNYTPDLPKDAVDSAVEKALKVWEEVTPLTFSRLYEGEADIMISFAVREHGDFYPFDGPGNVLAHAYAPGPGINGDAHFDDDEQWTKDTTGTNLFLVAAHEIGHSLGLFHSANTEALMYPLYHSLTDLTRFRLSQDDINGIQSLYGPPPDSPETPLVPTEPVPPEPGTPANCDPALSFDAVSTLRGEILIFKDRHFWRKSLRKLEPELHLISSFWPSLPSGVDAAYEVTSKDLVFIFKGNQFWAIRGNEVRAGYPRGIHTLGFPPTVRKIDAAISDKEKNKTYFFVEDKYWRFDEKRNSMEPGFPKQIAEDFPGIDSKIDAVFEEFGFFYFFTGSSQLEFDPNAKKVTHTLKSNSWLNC", "assay": "SERS nanosensor (aptamer strand displacement); 100 ng/mL; AuNS-2 with DNA2/DTNB present; Assay buffer for MMP-9 in solution not in the material; duplex annealed in 8 mM phosphate, 0.8 mM MgCl2, 20 mM NaCl; cell supernatant assay at 37 C for 2 h"}, "MMP-9": {"biological_target": "MMP-9 (human, UniProt P14780 107-707)", "sequence (P14780 107-707)": "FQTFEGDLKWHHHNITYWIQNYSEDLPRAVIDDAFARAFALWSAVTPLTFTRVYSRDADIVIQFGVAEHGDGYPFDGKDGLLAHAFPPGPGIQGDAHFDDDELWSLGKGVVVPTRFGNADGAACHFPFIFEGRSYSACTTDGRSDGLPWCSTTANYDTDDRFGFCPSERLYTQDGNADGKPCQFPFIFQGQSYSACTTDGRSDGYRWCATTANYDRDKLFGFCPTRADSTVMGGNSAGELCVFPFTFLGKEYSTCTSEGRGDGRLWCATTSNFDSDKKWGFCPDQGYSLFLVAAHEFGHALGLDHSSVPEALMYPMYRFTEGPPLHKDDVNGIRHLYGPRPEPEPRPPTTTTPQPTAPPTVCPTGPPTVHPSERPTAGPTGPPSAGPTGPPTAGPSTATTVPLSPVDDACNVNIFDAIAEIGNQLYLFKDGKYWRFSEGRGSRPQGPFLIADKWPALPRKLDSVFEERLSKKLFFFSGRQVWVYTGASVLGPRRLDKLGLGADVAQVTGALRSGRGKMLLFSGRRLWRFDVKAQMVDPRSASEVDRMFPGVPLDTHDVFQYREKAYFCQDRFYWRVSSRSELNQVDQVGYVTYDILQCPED", "assay": "SERS nanosensor (aptamer strand displacement, AuNS aggregation; UV-vis, DLS, TEM); MMP-9 10 ng/mL (selectivity), 350 ng/mL (UV-vis, DLS, TEM); AuNS-2 with DNA2/DTNB present; Assay buffer for MMP-9 in solution not in the material; duplex annealed in 8 mM phosphate, 0.8 mM MgCl2, 20 mM NaCl; cell supernatant assay at 37 C for 2 h"}}, "data": [{"binder": "B1", "values": [{"measurement": "binding result", "setting": "MMP-2", "value": "no binding"}, {"measurement": "binding result", "setting": "MMP-7", "value": "no binding"}, {"measurement": "binding result", "setting": "MMP-3", "value": "no binding"}, {"measurement": "binding result", "setting": "MMP-9", "value": "binds"}]}]}
